Laboratory results from article PMC10897342, “An octameric PqiC toroid stabilises the outer-membrane interaction of the PqiABC transport system” (EMBO Reports, 2024).

T1: PqiB (residues 1–546) with a C-terminal hexa-histidine tag, of the PqiAB construct (E. coli, UniProt P43671 1-546)
T1 construct: PqiB, periplasm-spanning MCE family protein of E. coli, residues 1–546; Always present together with PqiA in the experiments; also called hexameric PqiB; source: E. coli C43 (DE3), co-expressed with PqiA, purified (Ni-NTA, SEC) in DDM, reconstituted into DMPC proteoliposomes; not shown: His6, C-terminal, kept
T1 sequence (looked up): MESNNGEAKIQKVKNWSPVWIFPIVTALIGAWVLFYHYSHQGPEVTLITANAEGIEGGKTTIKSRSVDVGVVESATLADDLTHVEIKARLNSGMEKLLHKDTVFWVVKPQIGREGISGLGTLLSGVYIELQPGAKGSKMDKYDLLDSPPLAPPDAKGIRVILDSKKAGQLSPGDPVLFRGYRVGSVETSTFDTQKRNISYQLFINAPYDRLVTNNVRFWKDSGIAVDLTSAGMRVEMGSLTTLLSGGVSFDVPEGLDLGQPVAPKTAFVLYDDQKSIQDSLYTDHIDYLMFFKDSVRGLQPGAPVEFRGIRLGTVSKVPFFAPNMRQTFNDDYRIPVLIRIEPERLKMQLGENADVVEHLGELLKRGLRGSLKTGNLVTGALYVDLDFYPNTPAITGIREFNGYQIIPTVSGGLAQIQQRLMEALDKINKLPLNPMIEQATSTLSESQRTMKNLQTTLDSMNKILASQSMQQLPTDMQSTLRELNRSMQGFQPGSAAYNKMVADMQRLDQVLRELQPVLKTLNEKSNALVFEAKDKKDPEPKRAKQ

T2: PqiAB subcomplex (PqiA residues 1–417 and PqiB residues 1–546, C-terminal hexa-histidine tag) (E. coli, UniProt P0AFL9 1-417; P43671 1-546)
T2 construct: PqiA, integral inner membrane protein of E. coli, residues 1–417; PqiB, periplasm-spanning MCE family protein of E. coli, residues 1–546; also called purified PqiAB subcomplex; PqiAB-proteoliposomes; copies: + 6
T2 sequence (looked up) 1: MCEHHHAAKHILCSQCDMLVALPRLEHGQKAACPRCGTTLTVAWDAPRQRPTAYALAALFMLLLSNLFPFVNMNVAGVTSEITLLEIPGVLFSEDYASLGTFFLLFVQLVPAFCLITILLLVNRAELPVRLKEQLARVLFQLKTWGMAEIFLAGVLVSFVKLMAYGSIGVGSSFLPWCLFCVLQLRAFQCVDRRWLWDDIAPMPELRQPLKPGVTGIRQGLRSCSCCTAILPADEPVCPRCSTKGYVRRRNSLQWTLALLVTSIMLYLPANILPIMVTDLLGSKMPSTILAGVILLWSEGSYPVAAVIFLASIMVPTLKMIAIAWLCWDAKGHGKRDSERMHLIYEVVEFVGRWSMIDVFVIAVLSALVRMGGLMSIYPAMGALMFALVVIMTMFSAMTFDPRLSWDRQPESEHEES
T2 sequence (looked up) 2: T1 sequence (looked up)

B1: E. coli PqiC (residues 1–187) with a C-terminal hexa-histidine tag (natural protein, UniProt P0AB10 16-187, looked up)
chain: CSSGEINKNYYQLPVVQSGTQSTASQGNRLLWVEQVTVPDYLAGNGVVYQTSDVKYVIANNNLWASPLDQQLRNTLVANLSTQLPGWVVASQPLGSAQDTLNVTVTEFNGRYDGKVIVSGEWLLNHQGQLIKRPFRLEGVQTQDGYDEMVKVLAGVWSQEAASIAQEIKRLP
modifications: N-terminally acylated Cysteine (C16); the construct is 'presumably processed and lipidated in the same manner as the native lipoprotein'
notes: signal peptide in the construct; the N-terminal signal peptide is called residues 1–16 in the methods, while the mature lipoprotein is said to begin at the acylated C16; Octamer by the crystal's symmetry (two chains in the asymmetric unit); also called native PqiC; full length PqiC; source: E. coli C43 (DE3), membrane fraction solubilised in DDM, purified (Ni-NTA, SEC)
B2: PqiC-Strep, E. coli PqiC residues 1–186 with a C-terminal StrepTag II (natural protein, UniProt P0AB10 16-186, looked up)
chain: CSSGEINKNYYQLPVVQSGTQSTASQGNRLLWVEQVTVPDYLAGNGVVYQTSDVKYVIANNNLWASPLDQQLRNTLVANLSTQLPGWVVASQPLGSAQDTLNVTVTEFNGRYDGKVIVSGEWLLNHQGQLIKRPFRLEGVQTQDGYDEMVKVLAGVWSQEAASIAQEIKRL
modifications: lipidation of Cys16 (the paper: 'a native PqiC construct was used')
notes: signal peptide in the construct; Stood in a supported DMPC bilayer on a silicon surface; also called PqiC (in QCM-D and NR); surface-tethered PqiC octamer

Experiments:
[1] = molecular target: the molecule itself; experiment: crystal structure; PqiC-His in DDM; 3.2 Å; two chains in the asymmetric unit, octameric toroid by the symmetry of the unit cell; interface analysed with PDBePISA
[2] = molecular target: T1, PqiB (residues 1–546) with a C-terminal …; experiment: QCM-D; PqiC-Strep in a supported DMPC bilayer on a silicon sensor; PqiAB-DMPC proteoliposomes flowed over, then buffer; 25 °C, 0.1 mL/min; 20 mM Bis-Tris Propane, 150 mM NaCl, pH 8.5; conditions: both partners purified
[3] = molecular target: T2, PqiAB subcomplex (PqiA residues 1–417 …); experiment: neutron reflectometry; PqiC in a supported dDMPC bilayer on silicon; PqiAB-DMPC proteoliposomes (0.01 mg/mL PqiAB) incubated 30 minutes, washed; 20 mM BTP, 150 mM NaCl, pH 8.5; 25 °C; isotopic contrast variation; conditions: both partners purified

Binder | stoichiometry N [1] | binding result [2] | binding result [3]
B1 | 8 | – | –
B2 | – | binds | binds
